These are literature values, as cited in paper PMC4193333.

In the data set the target is BK channel alpha subunit (UniProt Q12791).
Sequence of UniProt Q12791 (Q12791 whole entry): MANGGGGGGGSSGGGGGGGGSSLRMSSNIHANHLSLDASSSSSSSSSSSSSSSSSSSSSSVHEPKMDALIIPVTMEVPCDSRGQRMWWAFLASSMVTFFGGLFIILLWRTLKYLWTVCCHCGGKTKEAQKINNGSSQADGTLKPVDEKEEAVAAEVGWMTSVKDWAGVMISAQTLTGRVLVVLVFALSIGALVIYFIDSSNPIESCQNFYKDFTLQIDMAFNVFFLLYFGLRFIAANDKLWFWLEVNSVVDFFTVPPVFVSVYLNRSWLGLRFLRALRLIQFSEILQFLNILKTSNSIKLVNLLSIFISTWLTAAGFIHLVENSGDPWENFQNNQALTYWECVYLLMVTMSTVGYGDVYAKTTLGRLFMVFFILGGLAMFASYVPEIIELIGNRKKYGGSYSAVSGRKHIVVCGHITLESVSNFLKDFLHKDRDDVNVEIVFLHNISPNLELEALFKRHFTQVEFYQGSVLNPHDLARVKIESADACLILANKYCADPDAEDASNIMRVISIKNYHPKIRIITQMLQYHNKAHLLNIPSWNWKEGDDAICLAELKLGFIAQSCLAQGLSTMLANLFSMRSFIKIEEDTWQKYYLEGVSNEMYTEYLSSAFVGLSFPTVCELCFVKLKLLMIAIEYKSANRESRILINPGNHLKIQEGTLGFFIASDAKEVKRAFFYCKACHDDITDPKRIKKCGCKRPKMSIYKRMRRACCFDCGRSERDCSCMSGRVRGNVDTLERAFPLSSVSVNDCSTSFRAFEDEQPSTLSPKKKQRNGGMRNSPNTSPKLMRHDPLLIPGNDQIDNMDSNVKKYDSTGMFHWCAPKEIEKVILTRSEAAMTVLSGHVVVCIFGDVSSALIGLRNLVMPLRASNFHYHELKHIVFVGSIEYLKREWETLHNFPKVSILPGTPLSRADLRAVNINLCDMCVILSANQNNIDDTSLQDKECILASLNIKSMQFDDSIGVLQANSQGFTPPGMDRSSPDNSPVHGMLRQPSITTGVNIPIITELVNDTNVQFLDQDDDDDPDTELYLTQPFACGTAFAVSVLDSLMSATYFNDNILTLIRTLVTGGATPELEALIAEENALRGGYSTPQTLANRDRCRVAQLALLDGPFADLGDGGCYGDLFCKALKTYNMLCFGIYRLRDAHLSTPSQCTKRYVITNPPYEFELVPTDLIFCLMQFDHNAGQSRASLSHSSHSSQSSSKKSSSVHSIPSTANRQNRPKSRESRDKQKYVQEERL

Usually Kd stands for the equilibrium constant for the complex coming apart. For the substance “Iberiotoxin (IbTX) (from UniProt P24663)”, the Kd is 1.5 nM.
